Here are results for 9 molecules from PMC6125681, “Stability of local secondary structure determines selectivity of viral RNA chaperones”.

As a reminder, the stoichiometry N is a count of units in the complex or per binding partner. In general, Kd refers to a measure of binding affinity in units of concentration.

Values joined by “and” are separate entries in the source; they are usually repeats but may differ in a detail not shown here. Equal entries are not always repeated.

Data set [1] deals with avian reovirus (ARV) σNS (avian reovirus). Nature of the data set: native MS; nanoESI-IMS-MS of σNS apoprotein, 20 μM, 200 mM ammonium acetate pH 7.6; no RNA.
The target is the same in data set [2]. Described as above. The source holds these as a separate data set.
Data set [3] shares this target. Nature of the data set: native MS; nanoESI-IMS-MS of σNS–RNP complex (σNS saturated with unstructured 20mer RNA), 20 μM, 200 mM ammonium acetate pH 7.6.
Data set [4] addresses T1, σNS (Avian reovirus (strain not given)) (UniProt W8NR44).
T1 sequence: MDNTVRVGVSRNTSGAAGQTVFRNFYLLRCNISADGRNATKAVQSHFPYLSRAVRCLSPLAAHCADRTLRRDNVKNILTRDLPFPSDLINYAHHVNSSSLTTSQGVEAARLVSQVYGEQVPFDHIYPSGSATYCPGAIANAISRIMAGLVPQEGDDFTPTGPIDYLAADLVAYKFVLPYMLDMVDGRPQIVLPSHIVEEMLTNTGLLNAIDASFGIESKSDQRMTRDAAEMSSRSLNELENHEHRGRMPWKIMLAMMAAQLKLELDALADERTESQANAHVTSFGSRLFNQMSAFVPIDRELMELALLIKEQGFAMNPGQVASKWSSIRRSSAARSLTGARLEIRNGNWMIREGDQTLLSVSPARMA
In words: fluorescence anisotropy. (In general: Fluorescence polarisation rises when a labelled molecule tumbles more slowly, as on binding a larger partner.)

For data set [5], the target named is T2, NSP2 (Rotavirus (strain  in …, UniProt A2T3N6 1-317)).
T2 sequence: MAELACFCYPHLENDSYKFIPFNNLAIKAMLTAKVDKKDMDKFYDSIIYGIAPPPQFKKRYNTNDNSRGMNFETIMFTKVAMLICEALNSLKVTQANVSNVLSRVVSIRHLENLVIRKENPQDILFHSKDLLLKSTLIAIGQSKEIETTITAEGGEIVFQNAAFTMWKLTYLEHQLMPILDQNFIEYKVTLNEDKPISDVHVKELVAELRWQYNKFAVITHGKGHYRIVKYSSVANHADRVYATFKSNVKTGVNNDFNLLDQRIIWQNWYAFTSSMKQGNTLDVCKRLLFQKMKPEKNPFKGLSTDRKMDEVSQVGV
In words: single-pair FRET; 25 nM protein; binds folded and unfolded RNA. As to conditions: protein: recombinant; chain copies: 8; Methods state the reverse; hairpin, -8.9 kcal/mol.

For data set [6], the target named is T2, NSP2. In words: fluorescence anisotropy; no Mg2+; one value given for all three RNAs. As to conditions: protein: recombinant, chain copies: 8, label: 5' AlexaFluor488, hairpin.
Data set [7] concerns the target T2, NSP2. Nature of the data set: FCCS; multiple RNAs per octamer. As to conditions: protein: recombinant; chain copies: 8; label: Cy3 or Cy5 (same string printed for both); unstructured; text calls the two labelled RNAs distinct non-complementary.
Data set [8] addresses T2, NSP2. In words: fluorescence anisotropy; no Mg2+. As to conditions: protein: recombinant; chain copies: 8; label: 5' AlexaFluor488; unstructured, MFE 0.
Data set [9] addresses T2, NSP2. In words: fluorescence anisotropy; 10 mM MgCl2. The settings on record: protein: recombinant; chain copies: 8; label: 5' AlexaFluor488; unstructured, MFE 0.

In the case of “avian reovirus (ARV) σNS (natural protein)”, the stoichiometry N in [1] was 6; in data set [2], 8; in data set [3], 8 and 6.
CUUCUUUCGAAAUUAAGAAG [metastable 20mer]: the dissociation constant Kd in data set [4] was determined as 24 nM.
In turn, “UCUUUGCAAACAUGCAAAGA [stable 20mer hairpin]” returned a Kd in data set [4] of 137 nM.
In data set [4], “CUUUUCAAGACAUGCAACAA [unstructured 20mer]” gave a Kd of 37 nM and a binding signal (fold Kd increase vs no Mg2+) of 1.5.
For AAAUCUUUGCAAACUAUCCAAUCCAUGCAAAGAUAA (structured_RNA) [dual-labelled 36mer stem-loop], the binding result with NSP2 [5] is recorded as “binds”.
On to CUUCUUUCGAAAUUAAGAAG (structured_RNA) [metastable 20mer], for which the Kd in the data set with NSP2 [6] (-3.8 kcal/mol) was about 20 nM.
Turning to UUCCUUCUAUUUCUUCU (ssRNA) [17mer (S11-derived)], the binding result with NSP2 [7] was “binds”.
CUUUUCAAGACAUGCAACAA (ssRNA) [unstructured 20mer]: the equilibrium dissociation constant (Kd) with NSP2 [8] amounted to 20.7 ± 1.67 nM; with NSP2 [9], 28 ± 1.48 nM.
With UCUUUGCAAACAUGCAAAGA (structured_RNA) [stable 20mer hairpin], the Kd with NSP2 [6] (-8.1 kcal/mol) was about 20 nM.
